# Results taken from US20130109581A1, “POSITIVELY CHARGED SPECIES AS BINDING REAGENTS IN THE SEPARATION OF PROTEIN AGGREGATES FROM MONOMERS” (priority 2009, published 2013).
# Tests used:
# [1] = molecular target: Abeta 1-42 monomer (UniProt P05067); assay: MPA, unspiked CSF background, ASB-14 wash
# [2] = molecular target: Abeta 1-42 monomer (UniProt P05067); assay: MPA, unspiked CSF background, ZW3-08 wash
# [3] = molecular target: Abeta 1-42 monomer (UniProt P05067); assay: MPA, unspiked CSF background, ZW3-16 wash
# [4] = molecular target: Abeta 1-42 monomer (UniProt P05067); assay: MPA, unspiked CSF background, Brij 35 wash
# [5] = molecular target: Abeta 1-42 globulomer (UniProt P05067); assay: MPA, CSF + 0.5 ng/mL globulomer, ZW3-12 wash
# [6] = molecular target: Abeta 1-42 globulomer (UniProt P05067); assay: MPA, CSF + 0.5 ng/mL globulomer, ZW3-14 wash
# [7] = molecular target: Abeta 1-42 globulomer (UniProt P05067); assay: MPA, CSF + 0.5 ng/mL globulomer, ZW3-16 wash
# [8] = molecular target: Abeta 1-42 globulomer (UniProt P05067); assay: MPA, CSF + 0.5 ng/mL globulomer, Empigen wash
# [9] = molecular target: Abeta 1-42 globulomer (UniProt P05067); assay: MPA, pulldown in TBSTT, no added detergent wash
# [10] = molecular target: Abeta 1-42 globulomer (UniProt P05067); assay: MPA, CSF + 0.5 ng/mL globulomer, ASB-C8phn wash
# [11] = molecular target: Abeta 1-42 monomer (UniProt P05067); assay: MPA, unspiked CSF background, Pluronic F-127 wash
# [12] = molecular target: Abeta 1-42 globulomer (UniProt P05067); assay: 42 (globulomer) RLU over 40 (Abeta 1-40 monomer) RLU
# [13] = molecular target: Abeta 1-42 globulomer (UniProt P05067); assay: MPA, 0.5 over 0 ng/mL globulomer in CSF, ASB-16 wash
# [14] = molecular target: Abeta 1-42 globulomer (UniProt P05067); assay: MPA, 0.5 over 0 ng/mL globulomer in CSF, ZW3-08 wash
# [15] = molecular target: Abeta 1-42 globulomer (UniProt P05067); assay: MPA, 0.5 over 0 ng/mL globulomer in CSF, ZW3-12 wash
# [16] = molecular target: Abeta 1-42 globulomer (UniProt P05067); assay: MPA, 0.5 over 0 ng/mL globulomer in CSF, ZW3-14 wash
# [17] = molecular target: Abeta 1-42 globulomer (UniProt P05067); assay: MPA, 0.5 over 0 ng/mL globulomer in CSF, ZW3-16 wash
# [18] = molecular target: Abeta 1-42 globulomer (UniProt P05067); assay: MPA, 0.5 over 0 ng/mL globulomer in CSF, Empigen wash
# [19] = molecular target: Abeta 1-42 globulomer (UniProt P05067); assay: MPA bead capture, CSF + 1 ng/mL globulomer, Abeta immunoassay
# [20] = molecular target: Abeta (1-42) aggregates from Alzheimer's Disease Brain Homogenate (human) (UniProt P05067); assay: MPA, serial dilutions of ADBH in CSF, LoD = 2x over background
# [21] = molecular target: Abeta 1-42 globulomer (UniProt P05067); assay: MPA, globulomer Abeta 42 RLU over average Abeta 40 RLU, ASB-16 wash
# [22] = molecular target: Abeta 1-42 globulomer (UniProt P05067); assay: MPA, globulomer Abeta 42 RLU over average Abeta 40 RLU, ZW3-12 wash
# [23] = molecular target: Abeta 1-42 globulomer (UniProt P05067); assay: MPA, globulomer Abeta 42 RLU over average Abeta 40 RLU, ASB-C8phn wash
substance,measurement,setting,value
"PSR1 (peptoid, directly conjugated to Dynal M270 beads)","Abeta 42 RLU, 0 ng/mL Average",[1],89.7 RLU
same,"Abeta 42 RLU, 0 ng/mL Average",[2],97.7 RLU
same,"Abeta 42 RLU, 0 ng/mL Average",[3],67 RLU
same,"Abeta 42 RLU, 0 ng/mL Average",[4],117 RLU
same,"Abeta 42 RLU, 0.5 ng/mL Average",[5],642 RLU
same,"Abeta 42 RLU, 0.5 ng/mL Average",[6],842 RLU
same,"Abeta 42 RLU, 0.5 ng/mL Average",[7],731 RLU
same,"Abeta 42 RLU, 0.5 ng/mL Average",[8],670 RLU
same,"LoD of globulomer, RLU (S/N = 2)",[9],204 RLU
same,"LoD of globulomer, pg/mL (Cal)",[9],2.34 pg/mL
same,S/N at 25.3 pg/mL,[9],13.7
same,"Abeta 42 RLU, 0.5 ng/mL Average",[10],936 RLU
same,"Abeta 42 RLU, 0 ng/mL Average",[11],117 RLU
same,42:40 ratio,[12],4.1
same,S/N Abeta 42 globulomer-spiked/unspiked,[13],8.2
same,S/N Abeta 42 globulomer-spiked/unspiked,[14],6.8
same,S/N Abeta 42 globulomer-spiked/unspiked,[15],7.1
same,S/N Abeta 42 globulomer-spiked/unspiked,[16],7.7
same,S/N Abeta 42 globulomer-spiked/unspiked,[17],10.9
same,S/N Abeta 42 globulomer-spiked/unspiked,[18],8.7
same,average RLU (42),[19],970 RLU
same,LoD (amol),[20],< 0.2 amol
same,S/N Abeta 42 globulomer-spiked/Abeta 40,[21],2.8
same,S/N Abeta 42 globulomer-spiked/Abeta 40,[22],1.4
same,S/N Abeta 42 globulomer-spiked/Abeta 40,[23],1.4
